Results on two molecules are retold here after patent publication US20230279077A1.

A word on the Kd: it is the free concentration of one partner at which half of the binding sites on the other are occupied at equilibrium, for simple one-to-one binding. The low end stands for higher affinity, the high end for lower affinity. Usually koff stands for the first-order rate constant of dissociation. A word on the kon: it is the rate constant with which the complex forms.

For test [1], the target named is HSV-1 glycoprotein D-Fc fusion protein (HSV-1) (UniProt Q69091). Put plainly: phage ELISA, glycoprotein D coated, anti-M13 HRP; well E10.
Test [2] has the same target. Put plainly: SPR Biacore T200, single cycle kinetics, G-Fc captured on anti-human IgG, 1:1 fit. For orientation: Surface plasmon resonance follows binding to a sensor surface in real time, without labels.
Test [3] shares this target. Put plainly: SPR Biacore T200, single cycle kinetics, G-Fc captured on anti-human IgG, 1:1 fit, second run.
The target is the same in test [4]. Put plainly: SPR, G-Fc captured on anti-human IgG; high end tied to G77 by Table 6.
For test [5] the target is unchanged. Put plainly: SPR, G-Fc captured on anti-human IgG.
Test [6] has the same target. Put plainly: SPR, G-Fc captured on anti-human IgG; high end tied to G75 by Table 6.
The target is the same in test [7]. Put plainly: phage ELISA, glycoprotein D coated, anti-M13 HRP; well C10. (In general: ELISA stands for enzyme-linked immunosorbent assay.)

B1: 3-G-77_M13R (VHH, not shown: small tags and cut ends)
VHH: QVQLVESGGGLVQPGGSLRLSCSASGFSFAFKNYAMSWVRQAPGKGLEWVSTMSGGGGDTKYADSVKGRFTISRDNNKNTVYLQMNSLKPEDTAVYYCAKGWITNNQFAFAPRGQGTQVTVSS
For B1, the A450 nm in test [1] was 1.25. In test [2], the Kd was found to be 0.183 nM, the koff was 0.00093 s⁻¹ and the kon is 5.07e+06 M⁻¹ s⁻¹. Further, in test [3], the Kd is 0.18 nM, the koff amounted to 0.00102 s⁻¹ and the kon is 5.67e+06 M⁻¹ s⁻¹. In test [4], the Kd came out at 0.2 nM.

B2: 3-G-75_M13R (VHH, not shown: small tags and cut ends)
VHH: QVKLEESGGGVVQDGGSLRLSCAAIEQFFTTNAMAWFRQAPGKERELVAATDWSGQSTSYADSVKGRFTISRDTAKNVMYLQMNILHTEDTAVYYCARAPGRVLLTSDLESYTIWGQGTQVTVSS
For B2, the Kd in test [5] stood at 4 nM; in test [2], 4.02 nM; in test [3], 3.86 nM; in test [6], 4 nM. Moreover, the koff is 0.0139 s⁻¹ in test [2] and 0.0152 s⁻¹ in test [3]. The kon in test [2] is 3.47e+06 M⁻¹ s⁻¹; in test [3], 3.93e+06 M⁻¹ s⁻¹. In test [7], this molecule came in with an A450 nm of 1.13.
